In PMC6468292:

B1: ACAAATA site (DNA4, ITC) (dsDNA)
DNA 1: TGCAAAATACAAATAAGACT
DNA 2: AGTCTTATTTGTATTTTGCA
B2: DBE2 (GTAAACA) (dsDNA)
DNA 1: CAAAATGTAAACAAGA
DNA 2: TCTTGTTTACATTTTG
B3: GTACACA site (ITC) (dsDNA)
DNA 1: TGCAAAATGTACACAAGACT
DNA 2: AGTCTTGTGTACATTTTGCA
B4: DNA3 (GTACACA, palindromic) (dsDNA)
DNA 1: ATTTGTGTACACAAAT
DNA 2: ATTTGTGTACACAAAT

How the values were obtained:
[1] = molecular target: T1, FOXA2-DBD (human, UniProt Q9Y261-2 163-264); assay: ITC
T1 sequence: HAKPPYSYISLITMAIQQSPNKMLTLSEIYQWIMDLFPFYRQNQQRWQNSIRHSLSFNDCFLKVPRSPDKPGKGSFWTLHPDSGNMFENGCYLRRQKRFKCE

[2] = molecular target: T2, FOXM1-DBD (human, UniProt Q08050 222-360); assay: ITC
T2 sequence: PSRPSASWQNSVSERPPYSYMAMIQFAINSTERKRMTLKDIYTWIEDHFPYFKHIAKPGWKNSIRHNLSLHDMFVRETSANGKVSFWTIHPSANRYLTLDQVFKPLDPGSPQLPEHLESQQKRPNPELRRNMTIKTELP

[3] = molecular target: T3, FOXC2-DBD (human, UniProt Q99958 72-171); assay: crystal structure
T3 sequence: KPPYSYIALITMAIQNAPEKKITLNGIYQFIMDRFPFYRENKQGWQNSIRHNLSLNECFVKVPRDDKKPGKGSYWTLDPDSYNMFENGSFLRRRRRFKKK

[4] = molecular target: T3, FOXC2-DBD; assay: ITC
[5] = molecular target: T3, FOXC2-DBD; assay: EMSA

Row | Binder | Kd [1] | Kd [2] | binding result [3] | Kd [4] | binding result [5]
1 | B1 | 7540 nM | 2070 nM |  |  | 
2 | B2 |  |  | binds |  | 
3 | B3 | 990 nM | 8300 nM |  | 2220 nM | 
4 | B4 |  |  |  |  | binds
